The target of series [1] is T1, L-PaPPO (latent polyphenol oxidase from apricot) (Prunus armeniaca, UniProt O81103).
T1 construct: gene PPO; native, purified from fruit; latent mature form Asp102-Ser597 (496 residues), transit peptide removed; 63 kDa by SDS-PAGE; no tag
Nature of the series: quinone formation, absorbance, microplate reader; nonlinear regression. The format is biochemical. The settings on record: 50 mM sodium citrate pH 4.5, 25 °C, no SDS; triphenol substrate; latent enzyme activated in the assay. From the text: (§1) quinone formation, absorbance, microplate reader; nonlinear regression on L-PaPPO (latent polyphenol oxidase from apricot)

The target of series [2] is T1, L-PaPPO (latent polyphenol oxidase from apricot). Nature of the series: inhibition of catechol oxidation, absorbance. The settings on record: for activity at 1000 µM: read-out: 1 mM. The format is biochemical. From the text: inhibition of catechol oxidation, absorbance on L-PaPPO (latent polyphenol oxidase from apricot)
Series [3] addresses T2, A-PaPPO (activated polyphenol oxidase from apricot) (Prunus armeniaca, UniProt O81103).
T2 construct: gene PPO; native, from fruit; C-terminal domain lost during storage at 4 °C; 38 kDa by SDS-PAGE
T2 sequence (O81103 102-429): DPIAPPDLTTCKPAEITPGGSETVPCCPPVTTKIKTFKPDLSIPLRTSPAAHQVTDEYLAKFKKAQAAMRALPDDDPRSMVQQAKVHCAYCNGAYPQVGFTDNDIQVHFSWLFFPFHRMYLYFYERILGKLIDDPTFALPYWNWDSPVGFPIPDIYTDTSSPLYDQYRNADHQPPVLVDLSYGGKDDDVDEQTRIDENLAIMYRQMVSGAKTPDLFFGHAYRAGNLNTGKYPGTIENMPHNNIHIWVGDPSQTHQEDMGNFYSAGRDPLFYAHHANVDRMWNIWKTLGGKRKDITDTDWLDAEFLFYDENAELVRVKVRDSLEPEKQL
In words: in-gel activity staining, partially denaturing SDS-PAGE. It is filed as biochemical. The settings on record: 0.2 M catechol, 50 mM sodium citrate pH 6.5, 25 °C.

Substrate in series [4]: Cc1ccc(O)c(O)c1
In words: quinone formation, absorbance, microplate reader; nonlinear regression. The settings on record: 50 mM sodium citrate pH 4.5, 25 °C, no SDS, diphenolase, latent enzyme activated in the assay. It is filed as biochemical, Prunus armeniaca.
Description: as §1

Substrate in series [5]: Oc1ccccc1O
The series is described as above. The settings on record: 50 mM sodium citrate pH 4.5, 25 °C, no SDS, diphenolase, latent enzyme activated in the assay. The format is biochemical, Prunus armeniaca.
Description: as §1

Substrate in series [6]: O=C(/C=C/c1ccc(O)c(O)c1)O[C@@H]1C[C@](O)(C(=O)O)C[C@@H](O)[C@H]1O
In words: purified protein. The settings on record: 50 mM sodium citrate pH 4.5, 25 °C, no SDS, diphenolase, latent enzyme activated in the assay.

Seven molecules from article PMC5609118, “Purification and Characterization of Latent Polyphenol Oxidase from Apricot (Prunus armeniaca L.)” (Journal of Agricultural and Food Chemistry, 2017) can be followed below.

Regarding `Oc1cccc(O)c1O` [pyrogallol], the Km in series [1] was determined as 11 ± 1.5 mM.

As to `CCCCCCc1ccc(O)cc1O` [4-hexylresorcinol], the activity at 100 µM in series [2] (read-out: 0.1 mM) came to 34 ± 1.4%.

`O=c1cc(CO)occ1O` [kojic acid]: in series [2], the activity at 1000 µM is 28 ± 1.1%.

For `O=C(O)CCC(=O)O` [succinic acid], the activity at 10000 µM in series [2] (read-out: 10 mM) stood at 89.1 ± 0.53%.

As for `O=C(O)c1ccccc1` [benzoic acid], in series [2], the activity at 1000 µM worked out at 41 ± 1.2%.

`Oc1ccccc1O` [catechol]: the “in-gel activity staining, partially denaturing SDS-PAGE” value in series [3] is reported as “single band was detected by in-gel enzymatic activity staining with catechol as substrate”.

B1: L-PaPPO (latent polyphenol oxidase from apricot) (Prunus armeniaca) (protein)
chain: DPIAPPDLTTCKPAEITPGGSETVPCCPPVTTKIKTFKPDLSIPLRTSPAAHQVTDEYLAKFKKAQAAMRALPDDDPRSMVQQAKVHCAYCNGAYPQVGFTDNDIQVHFSWLFFPFHRMYLYFYERILGKLIDDPTFALPYWNWDSPVGFPIPDIYTDTSSPLYDQYRNADHQPPVLVDLSYGGKDDDVDEQTRIDENLAIMYRQMVSGAKTPDLFFGHAYRAGNLNTGKYPGTIENMPHNNIHIWVGDPSQTHQEDMGNFYSAGRDPLFYAHHANVDRMWNIWKTLGGKRKDITDTDWLDAEFLFYDENAELVRVKVRDSLEPEKQLRYNYEPVSLPWLFTKPTARKTKNKTKAKVAATQLTSKFPATLVEVTTVEVARPKPRKRSKKEKVDEEELLIIKDIEFEGTEAVKFDVFINDDAESLSRRDKSEFAGSFVHVPQGKTTKAKTKTNLKLGITDLLEDLGAEDDSSVLVTLVPRVSNSPITIGGFKIEYSS
notes: native, purified from fruit; latent mature form Asp102-Ser597 (496 residues), transit peptide removed; 63 kDa by SDS-PAGE; no tag
Take B1: the Km in series [4] is listed as 2.0 ± 0.26 mM; in series [5], 5.3 ± 0.60 mM; in series [6], 2.7 ± 0.16 mM. The kcat in series [4] came to 700 ± 110 s⁻¹; in series [5], 210 ± 30 s⁻¹; in series [6], 1400 s⁻¹. In addition, the kcat/Km in series [4] is 340000 ± 70000 M⁻¹ s⁻¹; in series [5], 40000 ± 10000 M⁻¹ s⁻¹; in series [6], 500000 M⁻¹ s⁻¹.
